Data published in paper PMC6663880.

What was measured:
[1] = target: Lys63-linked polyubiquitin (UniProt P0CG48); experiment: co-immunoprecipitation (anti-FLAG beads), immunoblot quantification; details: HEK293 cells; n = 3; parent: est. 1.0; read off a plot
[2] = target: p97/VCP (valosin-containing protein) (UniProt P55072); experiment: as above; details: HEK293 cells; n = 3; parent: est. 1.0; read off a plot
Sequence of UniProt P55072 (P55072 whole entry): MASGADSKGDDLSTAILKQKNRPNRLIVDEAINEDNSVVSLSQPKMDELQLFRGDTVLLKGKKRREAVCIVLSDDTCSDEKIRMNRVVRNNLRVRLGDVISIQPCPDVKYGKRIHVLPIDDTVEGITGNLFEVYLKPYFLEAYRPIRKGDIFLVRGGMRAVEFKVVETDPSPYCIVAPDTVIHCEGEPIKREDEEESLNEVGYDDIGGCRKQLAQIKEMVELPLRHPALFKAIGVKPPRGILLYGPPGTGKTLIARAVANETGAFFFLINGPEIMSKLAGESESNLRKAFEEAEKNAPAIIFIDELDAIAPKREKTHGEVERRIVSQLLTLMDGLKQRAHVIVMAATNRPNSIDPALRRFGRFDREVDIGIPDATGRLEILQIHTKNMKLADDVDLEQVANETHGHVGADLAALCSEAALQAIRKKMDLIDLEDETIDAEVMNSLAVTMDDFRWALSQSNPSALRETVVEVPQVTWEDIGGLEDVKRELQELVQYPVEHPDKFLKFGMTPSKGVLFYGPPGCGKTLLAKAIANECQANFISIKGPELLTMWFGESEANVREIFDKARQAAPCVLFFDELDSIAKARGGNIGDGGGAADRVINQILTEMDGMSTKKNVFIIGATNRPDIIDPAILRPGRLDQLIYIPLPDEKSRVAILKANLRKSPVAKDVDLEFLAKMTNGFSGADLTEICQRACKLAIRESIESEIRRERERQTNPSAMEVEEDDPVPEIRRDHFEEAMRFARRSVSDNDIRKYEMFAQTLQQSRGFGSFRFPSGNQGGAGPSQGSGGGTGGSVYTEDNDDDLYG

ratio to parent [1]: 0.36
ratio to parent [2]: 0.22
Substance: RHBDL4mycFLAG (from UniProt Q8TEB9) AllY>F
